Molecular target: T1, PIP4K2a on the HuProt human protein chip (human, UniProt P48426 1-406)
T1 construct: Phosphatidylinositol-5-phosphate 4-kinase type 2 alpha, human recombinant protein of the HuProt chip; construct not described; source: human recombinant protein, highly purified, spotted on the HuProt human protein chip
T1 sequence (looked up): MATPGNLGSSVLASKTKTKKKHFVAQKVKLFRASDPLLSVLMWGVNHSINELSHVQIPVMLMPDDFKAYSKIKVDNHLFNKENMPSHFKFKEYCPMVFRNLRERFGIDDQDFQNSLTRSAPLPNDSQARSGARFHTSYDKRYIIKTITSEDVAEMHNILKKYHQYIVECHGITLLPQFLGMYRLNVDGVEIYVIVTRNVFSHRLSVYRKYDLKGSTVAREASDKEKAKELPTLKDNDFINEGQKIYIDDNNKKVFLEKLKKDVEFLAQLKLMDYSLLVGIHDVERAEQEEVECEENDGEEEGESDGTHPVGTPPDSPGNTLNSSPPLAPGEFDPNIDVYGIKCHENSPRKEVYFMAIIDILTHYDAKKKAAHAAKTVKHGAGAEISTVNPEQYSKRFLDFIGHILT
Test: peptide or protein array; HuProt human protein chip (>21,000 purified human recombinant proteins on nitrocellulose-coated slides), renatured in 50 mM Tris-HCl pH 8.0, 100 mM NaCl, 1 mM DTT, 0.3% Tween 20, blocked with 5% BSA; probed with 50 nM purified human MIF for 1 h; detected with rabbit anti-MIF and Cy3 anti-rabbit IgG; hit if SNR of both duplicates over 1.2
Conditions: both partners purified

binding result: binds
B1: recombinant human MIF (rhMIF) (natural protein, UniProt P14174 1-115, looked up)
chain: MPMFIVNTNVPRASVPDGFLSELTQQLAQATGKPPQYIAVHVVPDQLMAFGGSSEPCALCSLHSIGKIGGAQNRSYSKLLCGLLAERLRISPDRVYINYYDMNAANVGWNNSTFA
notes: No catalogue number printed; also called purified human MIF protein; human recombinant MIF protein; source: bought: R&D Systems
